Test results: patent US20240109955A1

Tests used:
Test in all cases: cell-based or functional assay
[1] = molecular target: SARS-CoV-2 Omicron BA.4/5 spike protein (SARS-CoV-2)
[2] = molecular target: SARS-CoV-2 Omicron BQ.1.1 spike protein (SARS-CoV-2)
[3] = molecular target: SARS-CoV-2 spike protein, Omicron sublineage BQ.1.1 (SARS-CoV-2) (UniProt P0DTC2)
[4] = molecular target: SARS-CoV-2 spike protein, Omicron sublineage BA.4/5 (SARS-CoV-2) (UniProt P0DTC2)
[5] = molecular target: SARS-CoV-2 spike (S) protein, Omicron sublineage BQ.1.1 (SARS-CoV-2)
[6] = molecular target: SARS-CoV-2 Omicron BA.2.75.2 spike protein (SARS-CoV-2)
[7] = molecular target: SARS-CoV-2 spike (S) protein, Omicron sublineage BA.2.75.2 (SARS-CoV-2)
[8] = molecular target: SARS-CoV-2 spike (S) protein, Omicron sublineage BA.4/5 (SARS-CoV-2)
[9] = molecular target: SARS-CoV-2 spike protein, Omicron sublineage BF.7 (SARS-CoV-2) (UniProt P0DTC2)
[10] = molecular target: SARS-CoV-2 spike protein, Omicron BA.4/5 (SARS-CoV-2)
[11] = molecular target: SARS-CoV-2 spike protein, Omicron sublineage XBB1.5 (SARS-CoV-2) (UniProt P0DTC2)
[12] = molecular target: SARS-CoV-2 spike protein, Omicron BQ.1.1 (SARS-CoV-2)
[13] = molecular target: SARS-CoV-2 Omicron BA.1 spike protein (SARS-CoV-2) (UniProt P0DTC2)
[14] = molecular target: SARS-CoV-2 Omicron BA.4/5 spike protein ([change]) (SARS-CoV-2) (UniProt P0DTC2)
[15] = molecular target: SARS-CoV-2 spike protein, Omicron sublineage BA.2 (SARS-CoV-2) (UniProt P0DTC2)
[16] = molecular target: SARS-CoV-2 spike protein, Omicron sublineage BA.2.12.1 (SARS-CoV-2) (UniProt P0DTC2)
[17] = molecular target: SARS-CoV-2 Omicron BQ.1.1 spike protein (SARS-CoV-2) (UniProt P0DTC2)
[18] = molecular target: SARS-CoV-2 Omicron BA.2.75.2 spike protein (SARS-CoV-2) (UniProt P0DTC2)
[19] = molecular target: SARS-CoV-2 spike protein, Omicron sublineage XBB (SARS-CoV-2) (UniProt P0DTC2)
[20] = molecular target: SARS-CoV-2 Omicron XBB spike protein (SARS-CoV-2) (UniProt P0DTC2)

Chain of MX492 (A19-46 x A23-58H/B1-182L) (bispecific antibody) (chain): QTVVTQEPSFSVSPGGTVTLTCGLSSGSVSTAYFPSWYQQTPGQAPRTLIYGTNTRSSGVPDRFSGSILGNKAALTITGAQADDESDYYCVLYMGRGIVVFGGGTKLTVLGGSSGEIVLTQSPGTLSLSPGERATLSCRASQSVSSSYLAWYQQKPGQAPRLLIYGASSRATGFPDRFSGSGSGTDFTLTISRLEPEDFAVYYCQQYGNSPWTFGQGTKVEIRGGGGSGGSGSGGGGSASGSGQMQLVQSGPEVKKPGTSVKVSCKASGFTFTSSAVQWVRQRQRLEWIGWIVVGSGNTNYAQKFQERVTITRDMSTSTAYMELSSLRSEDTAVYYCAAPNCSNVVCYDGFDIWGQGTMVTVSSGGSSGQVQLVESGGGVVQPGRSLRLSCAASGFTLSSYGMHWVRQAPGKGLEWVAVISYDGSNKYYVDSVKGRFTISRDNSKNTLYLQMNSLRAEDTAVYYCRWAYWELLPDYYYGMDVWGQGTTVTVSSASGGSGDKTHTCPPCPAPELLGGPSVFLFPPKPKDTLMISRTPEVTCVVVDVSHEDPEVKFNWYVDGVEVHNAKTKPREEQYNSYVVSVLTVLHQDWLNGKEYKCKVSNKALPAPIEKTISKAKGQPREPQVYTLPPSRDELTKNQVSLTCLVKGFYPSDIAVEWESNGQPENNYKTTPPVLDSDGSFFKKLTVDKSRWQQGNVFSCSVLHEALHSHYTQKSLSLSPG
Chain of A19-46.1 (antibody) (VH): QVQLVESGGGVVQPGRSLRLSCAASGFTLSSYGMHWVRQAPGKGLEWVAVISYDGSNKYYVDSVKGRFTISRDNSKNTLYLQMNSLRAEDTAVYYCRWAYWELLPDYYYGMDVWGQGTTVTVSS
Chain of A19-46.1 (antibody) (VL): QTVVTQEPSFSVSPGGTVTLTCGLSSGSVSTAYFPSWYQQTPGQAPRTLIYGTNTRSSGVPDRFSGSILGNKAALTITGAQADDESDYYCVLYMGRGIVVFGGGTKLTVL
Chain of A19-46 (antibody) (VH): as the sequence (VH) above
Chain of A19-46 (antibody) (VL): as the sequence (VL) above
Chain of MX413 (A19-61 x A23-58H/B1-182L) (bispecific antibody) (chain): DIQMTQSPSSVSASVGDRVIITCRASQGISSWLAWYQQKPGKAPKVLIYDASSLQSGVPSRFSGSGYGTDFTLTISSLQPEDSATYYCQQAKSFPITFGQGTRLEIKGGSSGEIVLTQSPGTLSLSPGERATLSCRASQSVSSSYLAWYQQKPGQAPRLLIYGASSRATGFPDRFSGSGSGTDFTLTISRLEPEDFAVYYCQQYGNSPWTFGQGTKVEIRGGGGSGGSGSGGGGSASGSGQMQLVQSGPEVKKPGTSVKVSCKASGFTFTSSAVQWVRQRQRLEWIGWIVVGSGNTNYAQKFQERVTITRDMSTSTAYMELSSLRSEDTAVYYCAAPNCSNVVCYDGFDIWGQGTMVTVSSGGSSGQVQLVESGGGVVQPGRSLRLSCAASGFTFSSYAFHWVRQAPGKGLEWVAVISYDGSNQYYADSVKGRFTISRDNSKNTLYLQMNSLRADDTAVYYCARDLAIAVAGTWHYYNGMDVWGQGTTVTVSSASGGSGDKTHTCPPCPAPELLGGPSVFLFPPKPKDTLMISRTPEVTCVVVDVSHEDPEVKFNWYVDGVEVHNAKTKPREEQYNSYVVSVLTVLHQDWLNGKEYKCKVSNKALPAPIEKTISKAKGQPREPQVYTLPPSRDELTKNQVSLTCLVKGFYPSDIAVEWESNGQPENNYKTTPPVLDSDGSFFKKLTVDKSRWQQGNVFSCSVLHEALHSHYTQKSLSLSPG

**Q.** For A19-46 (antibody), which IC50, pseudovirus neutralization [1] is on record?
**A.** > 10 µg/mL

**Q.** What about the IC80, pseudovirus neutralization [1] of the same substance?
**A.** > 10 µg/mL

**Q.** What about the IC50, pseudovirus neutralization [2] of the same substance?
**A.** 0.386 µg/mL

**Q.** What about the IC80, pseudovirus neutralization [2] of the same substance?
**A.** 1.11 µg/mL

**Q.** What about the IC50, pseudovirus neutralization [3] of the same substance?
**A.** 386 nM

**Q.** And the IC80, pseudovirus neutralization [3]?
**A.** 1110 nM

**Q.** What about the IC50, pseudovirus neutralization [4] of the same substance?
**A.** > 10000 nM

**Q.** What about the IC80, pseudovirus neutralization [4] of the same substance?
**A.** > 10000 nM

**Q.** And the IC50, pseudovirus neutralization [5]?
**A.** 0.386 µg/mL

**Q.** What about the IC80, pseudovirus neutralization [5] of the same substance?
**A.** 1.11 µg/mL

**Q.** What about the IC50, pseudovirus neutralization [6] of the same substance?
**A.** > 10 µg/mL

**Q.** What about the IC80, pseudovirus neutralization [6] of the same substance?
**A.** > 10 µg/mL

**Q.** And the IC50, pseudovirus neutralization [7]?
**A.** > 10 µg/mL

**Q.** And the IC80, pseudovirus neutralization [7]?
**A.** > 10 µg/mL

**Q.** What about the IC50, pseudovirus neutralization [8] of the same substance?
**A.** > 10 µg/mL

**Q.** What about the IC80, pseudovirus neutralization [8] of the same substance?
**A.** > 10 µg/mL

**Q.** What about the IC50, pseudovirus neutralization [9] of the same substance?
**A.** 5300 nM

**Q.** And the IC80, pseudovirus neutralization [9]?
**A.** > 10000 nM

**Q.** What about the IC50, pseudovirus neutralization [10] of the same substance?
**A.** > 10 µg/mL

**Q.** And the IC80, pseudovirus neutralization [10]?
**A.** > 10 µg/mL

**Q.** What about the IC50, pseudovirus neutralization [11] of the same substance?
**A.** > 10000 nM

**Q.** And the IC80, pseudovirus neutralization [11]?
**A.** > 10000 nM

**Q.** What about the IC50, pseudovirus neutralization [12] of the same substance?
**A.** 0.386 µg/mL

**Q.** And the IC80, pseudovirus neutralization [12]?
**A.** 1.11 µg/mL

**Q.** For “MX413 (A19-61 x A23-58H/B1-182L) (bispecific antibody)”, which IC50, pseudovirus neutralization [13] is on record?
**A.** 1290 nM

**Q.** What about the IC80, pseudovirus neutralization [13] of the same substance?
**A.** 6540 nM

**Q.** What about the IC50, pseudovirus neutralization [14] of the same substance?
**A.** 4 nM

**Q.** What about the IC80, pseudovirus neutralization [14] of the same substance?
**A.** 8 nM

**Q.** What does the source list for A23-58H/B1-182L hybrid antibody?
**A.** IC50, pseudovirus neutralization [13]: 53 nM; IC80, pseudovirus neutralization [13]: 90 nM; IC50, pseudovirus neutralization [14]: > 10000 nM; IC80, pseudovirus neutralization [14]: > 10000 nM

**Q.** What does the source list for B1-182.1 (antibody)?
**A.** IC50, pseudovirus neutralization [15]: 320 nM; IC80, pseudovirus neutralization [15]: 1210 nM; IC50, pseudovirus neutralization [16]: 165 nM; IC80, pseudovirus neutralization [16]: 1380 nM

**Q.** Which results are given for S2E12 (antibody)?
**A.** IC50, pseudovirus neutralization [15]: 9.9 nM; IC80, pseudovirus neutralization [15]: 48.2 nM; IC50, pseudovirus neutralization [16]: 15.6 nM; IC80, pseudovirus neutralization [16]: 46.6 nM

**Q.** Which IC50, pseudovirus neutralization [13] does the source give for A19-61.1 (antibody) here?
**A.** > 10000 nM

**Q.** What about the IC80, pseudovirus neutralization [13] of the same substance?
**A.** > 10000 nM

**Q.** What about the IC50, pseudovirus neutralization [14] of the same substance?
**A.** 19 nM

**Q.** What about the IC80, pseudovirus neutralization [14] of the same substance?
**A.** 31 nM

**Q.** A23-58.1 (antibody) was tested. Which IC50, pseudovirus neutralization [15] did it give?
**A.** 263 nM

**Q.** And the IC80, pseudovirus neutralization [15]?
**A.** 1080 nM

**Q.** What about the IC50, pseudovirus neutralization [16] of the same substance?
**A.** 100 nM

**Q.** What about the IC80, pseudovirus neutralization [16] of the same substance?
**A.** 504 nM

**Q.** Which results are given for A19-46.1 (antibody)?
**A.** IC50, pseudovirus neutralization [13]: 77 nM; IC80, pseudovirus neutralization [13]: 211 nM; IC50, pseudovirus neutralization [14]: > 10000 nM; IC80, pseudovirus neutralization [14]: > 10000 nM

**Q.** Which IC50, pseudovirus neutralization [17] does the source give for bebtelovimab (antibody) here?
**A.** > 10 µg/mL

**Q.** What about the IC80, pseudovirus neutralization [17] of the same substance?
**A.** > 10 µg/mL

**Q.** What about the IC50, pseudovirus neutralization [3] of the same substance?
**A.** > 10000 nM

**Q.** What about the IC80, pseudovirus neutralization [3] of the same substance?
**A.** > 10000 nM

**Q.** And the IC50, pseudovirus neutralization [13]?
**A.** 1 nM

**Q.** And the IC80, pseudovirus neutralization [13]?
**A.** 7 nM

**Q.** What about the IC50, pseudovirus neutralization [18] of the same substance?
**A.** 0.00567 µg/mL

**Q.** What about the IC80, pseudovirus neutralization [18] of the same substance?
**A.** 0.0207 µg/mL

**Q.** And the IC50, pseudovirus neutralization [4]?
**A.** 1.88 nM

**Q.** What about the IC80, pseudovirus neutralization [4] of the same substance?
**A.** 3.74 nM

**Q.** And the IC80, pseudovirus neutralization [14]?
**A.** 1 nM

**Q.** What about the IC50, pseudovirus neutralization [19] of the same substance?
**A.** > 10000 nM

**Q.** And the IC80, pseudovirus neutralization [19]?
**A.** > 10000 nM

**Q.** And the IC50, pseudovirus neutralization [15]?
**A.** 14.3 nM

**Q.** And the IC80, pseudovirus neutralization [15]?
**A.** 18.5 nM

**Q.** And the IC50, pseudovirus neutralization [20]?
**A.** > 10 µg/mL

**Q.** What about the IC80, pseudovirus neutralization [20] of the same substance?
**A.** > 10 µg/mL

**Q.** And the IC50, pseudovirus neutralization [16]?
**A.** 8.52 nM

**Q.** And the IC80, pseudovirus neutralization [16]?
**A.** 14.8 nM

**Q.** And the IC50, pseudovirus neutralization [9]?
**A.** 3.28 nM

**Q.** And the IC80, pseudovirus neutralization [9]?
**A.** 26.9 nM

**Q.** And the IC50, pseudovirus neutralization [11]?
**A.** > 10000 nM

**Q.** And the IC80, pseudovirus neutralization [11]?
**A.** > 10000 nM

**Q.** What does the source list for “MX492 (A19-46 x A23-58H/B1-182L) (bispecific antibody)”?
**A.** IC50, pseudovirus neutralization [13]: 1 nM; IC80, pseudovirus neutralization [13]: 3 nM; IC50, pseudovirus neutralization [14]: > 10000 nM; IC80, pseudovirus neutralization [14]: > 10000 nM
